Results on 1 molecule are retold here after paper PMC3900686 (2014).

Common to all, as to experiment: ITC; LCMT-1 preloaded with SAH
Test [1] addresses methylated PP2A core enzyme (methylated AC heterodimer) ( |  ("mammalian …, UniProt P30153 1-589)); P67775 1-309, carboxyl methylation of the last leucine residue (Leu-309)).
Test [2] concerns the target PP2A catalytic Cα-subunit (free PP2Ac) ( ("mammalian PP2Ac"), UniProt P67775 1-309).
For test [3], the target named is PP2A core enzyme (A–C heterodimer), unmethylated ( |  ("mammalian …, UniProt P30153 1-589; P67775 1-309).

As usually defined, the Kd is the equilibrium constant for the complex coming apart.

Chain of methylated PP2A core enzyme (methylated AC heterodimer) ( |  (P30153 whole entry, chain 1 of 2): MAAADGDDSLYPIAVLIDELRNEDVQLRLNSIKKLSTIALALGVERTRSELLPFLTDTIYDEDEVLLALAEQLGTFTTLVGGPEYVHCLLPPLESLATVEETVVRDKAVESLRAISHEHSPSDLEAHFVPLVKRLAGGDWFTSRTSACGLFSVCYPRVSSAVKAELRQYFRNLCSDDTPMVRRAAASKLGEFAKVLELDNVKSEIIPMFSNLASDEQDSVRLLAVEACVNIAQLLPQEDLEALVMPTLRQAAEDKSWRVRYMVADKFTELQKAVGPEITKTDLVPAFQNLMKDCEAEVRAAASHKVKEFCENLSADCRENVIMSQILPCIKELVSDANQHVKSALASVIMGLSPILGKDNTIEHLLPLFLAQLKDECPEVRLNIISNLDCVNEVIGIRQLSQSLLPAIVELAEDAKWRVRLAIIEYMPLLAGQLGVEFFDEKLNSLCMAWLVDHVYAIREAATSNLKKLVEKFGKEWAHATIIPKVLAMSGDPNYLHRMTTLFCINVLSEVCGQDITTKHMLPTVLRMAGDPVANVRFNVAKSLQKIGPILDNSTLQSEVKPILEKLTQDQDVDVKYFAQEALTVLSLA
Chain of methylated PP2A core enzyme (methylated AC heterodimer) ( |  (P67775 whole entry, chain 2 of 2): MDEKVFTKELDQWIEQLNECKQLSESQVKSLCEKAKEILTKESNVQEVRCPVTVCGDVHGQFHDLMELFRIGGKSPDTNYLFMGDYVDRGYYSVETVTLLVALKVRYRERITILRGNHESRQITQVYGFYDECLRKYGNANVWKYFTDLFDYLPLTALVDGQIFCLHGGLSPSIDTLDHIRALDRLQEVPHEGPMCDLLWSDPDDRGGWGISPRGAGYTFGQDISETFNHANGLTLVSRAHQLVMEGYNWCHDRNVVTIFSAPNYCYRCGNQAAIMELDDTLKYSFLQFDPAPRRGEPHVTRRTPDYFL
Chain of PP2A core enzyme (A–C heterodimer), unmethylated ( |  (P30153 whole entry, chain 1 of 2): as the sequence (P30153 whole entry, chain 1 of 2) above
Chain of PP2A core enzyme (A–C heterodimer), unmethylated ( |  (P67775 whole entry, chain 2 of 2): as the sequence (P67775 whole entry, chain 2 of 2) above
Chain of PP2A catalytic Cα-subunit (free PP2Ac) (P67775 whole entry): as the sequence (P67775 whole entry, chain 2 of 2) above

B1: PP2A-specific leucine carboxyl methyltransferase 1 (LCMT-1) (enzyme)
chain: MATRQRESSITSCCSTSSCDADDEGVRGTCEDASLCKRFAVSIGYWHDPYIQHFVRLSKERKAPEINRGYFARVHGVSQLIKAFLRKTECHCQIVNLGAGMDTTFWRLKDEDLLPSKYFEVDFPMIVTRKLHSIKCKPPLSSPILELHSEDTLQMDGHILDSKRYAVIGADLRDLSELEEKLKKCNMNTQLPTLLIAECVLVYMTPEQSANLLKWAANSFERAMFINYEQVNMGDRFGQIMIENLRRRQCDLAGVETCKSLESQKERLLSNGWETASAVDMMELYNRLPRAEVSRIESLEFLDEMELLEQLMRHYCLCWATKGGNELGLKEITY
With B1, the Kd in test [1] is 630 nM; in test [2], 560 nM; in test [3] it was 140 nM.
